Residue numbers refer to the chain shown, from its start.
B1: hMAB-A (2.3) (antibody, V domains shown)
VH: EVQLVESGGGLVKPGGSLRLSCAASGFTFSSYWMHWVRQAPGKGLEWVGEIIPIFGHTNYNEKFKSRFTISLDNSKNTLYLQMGSLRAEDTAVYYCARGGYYYYGSRDYFDYWGQGTTVTVSS
VL: DIVMTQSPDSLAVSLGERATISCRASQSVDYSGDSYMNWYQQKPGQPPKLLIYAASDLESGIPARFSGSGSGTDFTLTISSLEPEDFATYYCQQSHEDPFTFGQGTKLEIK
B2: hMAB-A (3.3) (antibody, V domains shown)
VH: B1 VH with K63R, K65Q, S66G
VL: B1 VL
B3: hMAB-A (4.4) (antibody, V domains shown)
VH: B1 VH with M34I, K63R, K65Q, S66G
VL: B1 VL with M37L, H96Y, E97S, D98T
B4: hMAB-A (2.2) (antibody, V domains shown)
VH: B1 VH
VL: B1 VL with R24K
B5: hMAB-A (2B.2) (antibody, V domains shown)
VH: B1 VH with G105I, S106G, R107K, D108G, Y109V, F110L
VL: B1 VL with R24K
B6: chMAB-A (antibody, V domains shown)
VH: QVQLQQPGAELVKPGASVKLSCKASGYTFTSYWMHWVKQRPGQGLEWIGEIIPINGHTNYNEKFKSKATLTLDKSSSTAYMQLSSLASEDSAVYYCARGGYYYYGSRDYFDYWGQGTTLTVSS
VL: DIVLTQSPASLAVSLGQRATISCKASQSVDYDGDSYMNWYQQIPGQPPKLLIYAASDLESGIPARFSGSGSGTDFTLNIHPVEEEDAATYYCQQSHEDPFTFGGGTKLEIK
B7: hMAB-A (2C.2) (antibody, V domains shown)
VH: B1 VH with G105P, S106R, R107F, D108G, Y109W, F110L
VL: B1 VL with R24K
B8: hMAB-A (2D.2) (antibody, V domains shown)
VH: B1 VH with G105T, S106G, R107K, D108G, Y109V, F110L
VL: B1 VL with R24K
B9: hMAB-A (2I.2) (antibody, V domains shown)
VH: B1 VH with G105P, S106R, R107Q, D108G, Y109F, F110L
VL: B1 VL with R24K
B10: hMAB-A (1.1) (antibody, V domains shown)
VH: B1 VH with F55N
VL: B1 VL with R24K, S32D

Assays:
[1] = target: shADAM9-His (His-tagged soluble human ADAM9) (human) (UniProt Q13443); assay: binding affinity study (BIACORE, Table 7); reference not named
[2] = target: shADAM9-His (His-tagged soluble human ADAM9) (human) (UniProt Q13443); assay: BIACORE SPR; antibody captured on Fab2 goat anti-human Fc surface, shADAM9-His 6.25-100 nM as analyte; 1:1 Langmuir
[3] = target: shADAM9-His (His-tagged soluble human ADAM9) (human) (UniProt Q13443); assay: BIACORE SPR; antibody captured, huADAM9-His as analyte

Row | Binder | fold increase in affinity [1] [fold] | Kd [2] [nM] | Kd [3] [nM] | koff [3] [s⁻¹] | kon [3] [M⁻¹ s⁻¹]
1 | B1 | 2 | 1.3 | – | – | –
2 | B2 | 2 | 1.4 | – | – | –
3 | B3 | – | 2 | – | – | –
4 | B4 | 2 | 1.4 | 0.6 | 0.00055 | 900000
5 | B5 | – | – | 0.6 | 0.00039 | 610000
6 | B6 | – | 3.6 | – | – | –
7 | B7 | – | – | 1.4 | 0.00081 | 590000
8 | B8 | – | – | 0.8 | 0.00058 | 690000
9 | B9 | – | – | 0.4 | 0.00023 | 660000
10 | B10 | – | 3.5 | – | – | –

Source: US20250115676A1
